Measured values from patent US10100114B2, “Antibodies specific for TROP-2 and their uses” (RINAT NEUROSCIENCE CORP., priority 2011, dated 2018).

B1: h7E6SVG-TG6-vc0101: h7E6SVG with heavy chain C-terminal TG6 tag (SEQ ID NO: 79) conjugated with AcLys-vc-PABC-0101 (conjugate)
VH: QVQLQESGPGLVKPSETLSLTCTVSGGSISSYGVHWIRQPPGKGLEWIGVIWTSGVTDYNSALMGRVTISVDTSKNQFSLKLSSVTAADTAVYYCARDGDYDRYTMDYWGQGTLVTVSS
VL: DIVMTQSPDSLAVSLGERATINCRASKSVSTSGYSYMHWYQQKPGQPPKLLIYLASNLESGVPDRFSGSGSGTDFTLTISSLQAEDVAVYYCQHSRELPYTFGQGTKLEIK
B2: h7E6SVG-N297Q/K222R-PEG6MMAD: h7E6SVG with N297Q/K222R mutations conjugated with PEG6-propionyl-MMAD (conjugate)
VH: B1 VH
VL: B1 VL

How the values were obtained:
[1] = tested on: SW620 cells (Trop-2 non-expressing); assay: Cytotoxicity of ADCs (CellTiter-Glo), SW620; type: cell-based; details: Table 13; SW620, Trop2 expression −; 96 hours; concentration of total Ab
Experimental: Target expressing (A431, BxPC3, CAPAN-2 and Colo205) or non-expressing (SW620) cells were seeded on white walled clear bottom plates at 2000 cells/well for 24 hours before treatment. Cells were treated with 4 fold serially diluted antibody-drug conjugates in triplicates. Cell viability was determined by CellTiter-Glo® Luminescent Cell Viability Assay 96 (Promega, Madison Wis.) 96 hours after treatment. Relative cell viability was determined as percentage of untreated control. IC50 was calculated by Prism software.
2-methylalanyl-N-[(3R,4S,5S)-3-methoxy-1-{(2S)-2-[(1R,2R)-1-methoxy-2-methyl-3-oxo-3-{[(1S)-2-phenyl-1-(1,3-thiazol-2-yl)ethyl]amino}propyl]pyrrolidin-1-yl}-5-methyl-1-oxoheptan-4-yl]-N-methyl-L-valinamide is a novel auristatin, as described in U.S. Application Nos. 61/561,255 and 61/676,423. Method of conjugating Trop-2 antibodies using transglutaminase tags is described in Example 9. Target expressing or non-expressing (SW620) cells were seeded on white walled clear bottom plates at 2000 (A431, BxPC3, NCI-H292, NCI-H1650, MDA-MB-468 and SW620), 2500 (Calu-3) or 3000 (OVCAR3 and SKBR3) cells per well for 24 hours before treatment. Cells were treated with 4 fold serially diluted antibody-drug conjugates in triplicates. Cell viability was determined by CellTiter-Glo® Luminescent Cell Viability Assay 96 (Promega, Madison, Wis.) 96 hours after treatment. Relative cell viability was determined as percentage of untreated control. IC50 was calculated by GraphPad Prism 5 software and expressed as concentration (nM) of total Ab.

BxPC3 xenograft = assay: In vivo efficacy of humanized Trop-2 ADCs, pancreatic tumor BxPC3 xenograft model; parameters: species or system CB17/SCID mice; details: single dose, tail vein; FIGS. 9A-9C
Experimental: In vivo efficacy studies of Trop-2 ADCs were performed with target-expressing BxPC3 xenograft model. Two million BxPC3 pancreatic cancer cells were implanted subcutaneously into 5-8 weeks old CB17/SCID mice until the tumor sizes reached between 300-400 mm^3. […] Tumor volume was measured once a week by a Caliper device and calculated with the following formula: Tumor volume=(length×width^2)/2. Studies were terminated before their tumor volumes reached 2000 mm^3.

Colo205 xenograft = assay: In vivo efficacy of Trop-2 ADCs, colorectal tumor Colo205 xenograft model; parameters: species or system nu/nu mice; details: single dose of 6 mg/kg, tail vein; FIG. 10
Experimental: In vivo efficacy study of Trop-2 ADCs was performed with target-expressing colo205 xenograft model. Three millions of colo205 colon cancer cells were implanted subcutaneously into 5-8 weeks old nu/nu mice until the tumor sizes reached ˜300 mm^3. […] Tumor volume is measured once a week by a Caliper device and calculated with the following formula: Tumor volume=(length×width^2)/2. Studies were terminated before their tumor volumes reached 2000 mm^3.

[2] = tested on: ovarian cancer patient derived xenograft (PDX Ova196756); assay: In vivo efficacy of Trop-2 ADC, ovarian PDX Ova196756; parameters: species or system CB17/SCID mice; details: single dose, […] and 1.5 mg/kg, tail vein; FIG. 11
Experimental: This tumor sample was derived from surgical specimen and propagated in NSG mice (Jackson Laboratories, Bar Harbor, Me.). For efficacy studies, approximately 1-2 mm^3 of tumor fragments were implanted subcutaneously into the lateral flanks of CB17/SCID mice. […] Tumor volume was measured once a week by a caliper device and calculated with the following formula: Tumor volume=(length×width^2)/2. Studies were terminated before their tumor volumes reached 2000 mm^3.

[3] = tested on: pancreatic cancer patient derived xenograft (PDX Pan0146); assay: In vivo efficacy of Trop-2 ADC, pancreatic PDX Pan0146
Experimental: In vivo efficacy studies of Trop-2 ADC using humanized anti-Trop-2 antibody (h7E6SVG) conjugated with TG6-vc0101 were performed with target-expressing pancreatic cancer patient derived xenograft model (PDX Pan0146) from Jackson Laboratories (Bar Harbor, Me.). For efficacy studies, 1-2 mm^3 of tumor fragments were implanted subcutaneously into the lateral flanks of the animals. […] Gemcitabine was given at 75 mg/kg twice weekly for a total of 6 doses. […] Gemcitabine was given once weekly at 75 mg/kg for 4 doses. Tumor volume was measured once a week by a Caliper device and calculated with the following formula: Tumor volume=(length×width^2)/2. Studies were terminated before their tumor volumes reached 2000 mm^3.

[4] = tested on: pancreatic cancer patient derived xenograft (PDX Pan144607); assay: In vivo efficacy of Trop-2 ADC, pancreatic PDX Pan144607; parameters: species or system CB17/SCID mice; details: single dose of 1.5, 3.0 and 6.0 mg/kg, tail vein; FIG. 13
Experimental: In vivo efficacy study of Trop-2 ADC using humanized anti-Trop-2 antibody (h7E6SVG) conjugated with vc0101 or PEG6MMAD was performed with target-expressing pancreatic cancer patient derived xenograft model (PDX Pan144607). This tumor sample was derived from surgical specimen and propagated in NSG mice (Jackson Laboratories, Bar Harbor, Me.). For efficacy studies, approximately 1-2 mm^3 of tumor fragments were implanted subcutaneously into the lateral flanks of CB17/SCID mice. Animals were randomized by tumor sizes once they reached ˜300 mm^3, and single dose of 1.5, 3.0 and 6.0 mg/kg h7E6SVG-N297Q/K222R-PEG6MMAD and the control conjugate were administered through bolus tail vein injection. Tumor volume was measured once a week by a Caliper device and calculated with the following formula: Tumor volume=(length×width^2)/2. Studies were terminated before their tumor volumes reach 2000 mm^3.

[5] = tested on: pancreatic cancer patient derived xenograft (PDX Pan0135); assay: In vivo efficacy of Trop-2 ADC, pancreatic PDX Pan0135; details: 6 mg/kg single dose, tail vein; FIG. 14
Experimental: In vivo efficacy study of Trop-2 ADC using humanized anti-Trop-2 antibody (h7E6SVG) conjugated with PEG6MMAD was performed with target-expressing pancreatic cancer patient derived xenograft model (PDX Pan0135) from Jackson Laboratories. For efficacy studies, approximately 1-2 mm^3 of tumor fragments were implanted subcutaneously into the lateral flanks of the animals. Animals were randomized by tumor sizes once they reached ˜300 mm^3 and 6 mg/kg of h7E6SVG-N297Q/K222R-PEG6MMAD and the control conjugate were administered through bolus tail vein injection with single dose. Tumor volume was measured once a week by a Caliper device and calculated with the following formula: Tumor volume=(length×width^2)/2. Studies were terminated before their tumor volumes reached 2000 mm^3.

Row | Molecule | IC50 [1] [nM] | tumor response, BxPC3 xenograft (BxPC3 xenograft) | tumor response, Colo205 xenograft (Colo205 xenograft) | tumor response, ovarian PDX Ova196756 [2] | tumor response on continuous dosing, Pan0146 PDX ([3]; […] weekly x4, 1.5 mg/kg bi-weekly x2 or 3.0 mg/kg single dose, FIG. 12B) | efficacy to induce tumor regression compared with gemcitabine, Pan0146 PDX ([3]; single dose vs gemcitabine 75 mg/kg twice weekly, 6 doses, FIG. 12A) | tumor response, Pan144607 PDX [4] | tumor response, Pan0135 PDX [5]
1 | B1 | 156 | tumor regression | tumor regression | tumor regression | sustained tumor regression | superior efficacy to gemcitabine |  | 
2 | B2 | > 267 | tumor regression |  |  |  |  | tumor regression | tumor regression
